Experiment [1] deals with mouse FGFR2 exon 9 RNA probe (U1 and U2 snRNA binding). The experiment in a line: In vitro exon-recognition assay, exon 9 probe. It counts as biochemical. The following applies: HeLa nuclear extract, UV crosslinking. On the procedure:
(§1) A mutated DNA template of 3′ ss in intron 8 and 5′ ss in intron 9 was prepared from mutated reporter vectors as shown in FIG. 3A. The RNA substrates were labeled with ^32P by in vitro T7 transcription. In vitro splicing reaction and UV cross linking were performed under the conditions described by Sawa [Sawa H, Shimura Y (1992) Genes Dev 6: 244-254.]. To identify the shifted bands by UV cross linking, pre-heated cDNA oligo (10 microgram/mL) for U1 (5′-[…]-3′/SEQ ID NO:38) or U2 (5′-[…]-3′/SEQ ID NO:39) was added to the RNAs after UV cross linking, and the U1 or U2 cDNA oligo/RNAs mixture were digested with 50 U/mL of RNase H at 30 degrees C. for 10 min. In FIG. 5C, highly purified Flag-Fox2 and Flag-ESRP1 were added to RNAs and incubated at room temperature for 5 min before splicing reaction to examine their inhibitory or activating effects on exon recognition of U1 snRNA or U2 snRNA. After these reactions, RNAs were subjected to denaturing PAGE analysis and autoradiography.
(§2) Next, the present inventors tested whether Fox and/or ESRP cause switching from exon 9 to exon 8 through interruption of exon 9 recognition. The present inventors examined this under the in vitro splicing conditions using ^32P-labeled RNA probe of exon 9 with introns containing UGCAUG and ISE/ISS-3 sites (FIG. 10C, top panel) and the exon 8 RNA probe of same stretches. […]

Experiment [2] deals with mouse FGFR2 exon 8 RNA probe (U1 snRNA binding). In words: In vitro exon-recognition assay, exon 8 probe. The format is biochemical. The following applies: HeLa nuclear extract, UV crosslinking. On the procedure: as §1, §2

B1: Fox2 protein: highly purified recombinant Flag-Fox2 added to RNAs before splicing reaction (protein, UniProt O43251 1-390, looked up)
RNA binding protein fox-1 …: MQNEPLTPGYHGFPARDSQGNQEPTTTPDAMVQPFTTIPFPPPPQNGIPTEYGVPHTQDYAGQTGEHNLTLYGSTQAHGEQSSNSPSTQNGSLTTEGGAQTDGQQSQTQSSENSESKSTPKRLHVSNIPFRFRDPDLRQMFGQFGKILDVEIIFNERGSKGFGFVTFENSADADRAREKLHGTVVEGRKIEVNNATARVMTNKKMVTPYANGWKLSPVVGAVYGPELYAASSFQADVSLGNDAAVPLSGRGGINTYIPLISLPLVPGFPYPTAATTAAAFRGAHLRGRGRTVYGAVRAVPPTAIPAYPGVVYQDGFYGADLYGGYAAYRYAQPATATAATAAAAAAAAYSDGYGRVYTADPYHALAPAASYGVGAVASLYRGGYSRFAPY
modifications: Flag tag
As to B1, the “shifted bands by U1 and U2 snRNA” value in experiment [1] was “decreased”. In experiment [2], the “suppressive or activating effect on exon recognition” value is “not obvious”.

B2: ESRP1 protein: highly purified recombinant Flag-ESRP1 added to RNAs before splicing reaction (protein, UniProt Q6NXG1 1-681, looked up)
Epithelial splicing …: MTASPDYLVVLFGITAGATGAKLGSDEKELILLFWKVVDLANKKVGQLHEVLVRPDQLELTEDCKEETKIDVESLSSASQLDQALRQFNQSVSNELNIGVGTSFCLCTDGQLHVRQILHPEASKKNVLLPECFYSFFDLRKEFKKCCPGSPDIDKLDVATMTEYLNFEKSSSVSRYGASQVEDMGNIILAMISEPYNHRFSDPERVNYKFESGTCSKMELIDDNTVVRARGLPWQSSDQDIARFFKGLNIAKGGAALCLNAQGRRNGEALVRFVSEEHRDLALQRHKHHMGTRYIEVYKATGEDFLKIAGGTSNEVAQFLSKENQVIVRMRGLPFTATAEEVVAFFGQHCPITGGKEGILFVTYPDGRPTGDAFVLFACEEYAQNALRKHKDLLGKRYIELFRSTAAEVQQVLNRFSSAPLIPLPTPPIIPVLPQQFVPPTNVRDCIRLRGLPYAATIEDILDFLGEFATDIRTHGVHMVLNHQGRPSGDAFIQMKSADRAFMAAQKCHKKNMKDRYVEVFQCSAEEMNFVLMGGTLNRNGLSPPPCKLPCLSPPSYTFPAPAAVIPTEAAIYQPSVILNPRALQPSTAYYPAGTQLFMNYTAYYPSPPGSPNSLGYFPTAANLSGVPPQPGTVVRMQGLAYNTGVKEILNFFQGYQYATEDGLIHTNDQARTLPKEWVCI
modifications: Flag tag
On to B2, for which, in experiment [1], the “shifted bands by U1 and U2 snRNA” value was “decreased”. Also, the “suppressive or activating effect on exon recognition” value in experiment [2] is listed as “not obvious”.

Source of the values: US9273364B2 (Kyoto University, priority 2010, dated 2016).
